# Measurements reported in paper PMC11376570, “Enhancing the therapeutic potential of P29 protein-targeted monoclonal antibodies in the management of alveolar echinococcosis through CDC-mediated mechanisms” (PLOS Pathogens, 2024).
# T1: peptide 13 of the 45 overlapping peptides of rEgP29 (Echinococcus granulosus)
# T1 construct: residues 61-75 of P29 of Echinococcus granulosus, one of 45 overlapping 15-mers (overlap of 10 residues); source: synthetic peptide
# T1 chain: NIASKVADAFQKNKE
# Experiments:
# [1] = target: T2, recombinant Echinococcus granulosus P29 (Echinococcus granulosus, UniProt Q9U8G7); assay: SPR; called SPR by the paper; mAb 4G10F4 (5 ug/mL) captured on the AMC probe, antigen P29 at 500, 250, 125, 62.5, 31.3 and 0 nM in PBST; Octet RH16 (Sartorius), Data Analysis 12.0; settings: both partners purified
# T2 construct: P29, 29 kDa antigen of Echinococcus granulosus, GenBank AAD53328.1; 238 amino acids by the BLAST comparison with E. multilocularis P29 (235/238); band at about 30 kDa on SDS-PAGE; also called rEgP29; rEg.P29
# [2] = target: T1, peptide 13 of the 45 overlapping …; assay: ELISA; peptide scan by indirect ELISA; 45 overlapping 15-mer peptides of rEgP29 coated at 5 ug/mL; purified mAb at 1:5,000; settings: both partners purified
# T2 sequence (Q9U8G7 whole entry): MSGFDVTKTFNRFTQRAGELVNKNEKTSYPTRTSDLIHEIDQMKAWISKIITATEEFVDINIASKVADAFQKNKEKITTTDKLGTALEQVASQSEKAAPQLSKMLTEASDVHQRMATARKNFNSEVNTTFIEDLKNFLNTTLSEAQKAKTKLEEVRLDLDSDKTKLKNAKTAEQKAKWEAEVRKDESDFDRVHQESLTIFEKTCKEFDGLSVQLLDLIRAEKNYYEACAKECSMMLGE
binder,measurement,setting,value
"4G10F4 monoclonal antibody against rEgP29 (antibody, V domains shown, Mouse IgG1 (subtype by ELISA); also called 4G10F4 mAb; anti-P29 mAb; source: mouse hybridoma (BALB/c splenocytes fused with Sp2/0), culture supernatant; also purified from serum-free supernatant (protein G column)) VH: EVKLEESGPGLVAPSQSLSITCTVSGFSLFSYAVHWVRQPPGKGLEWLGVIWAGGSTDYNSALMSRLSISKDNSKSQVFLKMNSLQTDDTAMYYCASIHYYGYWHFDVWGAGTTVTVSS VL: DIVMTQSPLSLPVSLGDQASISCRSSQSIVHSNGNTYLEWYLQKPGQSPKLLIYKVSNRFSGVPDRFSGSGSGTDFTLKISRVEAEDLGVYYCFQGSHVPYTFGGGTKLEIK",Kd,[1],6.29 nM
same,koff,[1],0.00049 s⁻¹
same,kon,[1],77800 M⁻¹ s⁻¹
same,binding result,[2],binds
